Reference: patent US12358959B2, “Compositions and methods for oligodendrocyte development” (CHILDREN'S MEDICAL CENTER CORPORATION, priority 2016, dated 2025)
Entries after “also recorded” stand apart in the source; their conditions may differ.

What was measured:
cerebellar slices = assay: Remyelination of LPC-demyelinated cerebellar slice cultures; format: cell-based, mouse; details: Gpr56+/+;Tgm2−/− cerebellar slices, LPC 24 hr, 4 days of remyelination, TG2 20 nM; listed as Recombinant TG2
Source text: FIG. 12D provides composite images created in Image J showing myelinated axons (black) for quantification. FIG. 12E is a graph showing percentage of myelinated axons after remyelination. Remyelination was reduced in cerebellar slices that lacked OPC-derived GPR56. *P=0.0135, paired t-test, N=5 per genotype. FIG. 12F provides representative images of cerebellar slice cultures from P10 Gpr56^+/+; Tgm2^−/− and Gpr56^−/−; Tgm2^−/− mouse cerebella that were demyelinated with LPC for 24 hr followed by 4 days of remyelination in the presence or absence of TG2 (20 nM). Slices were immunostained with NF200 (white) and MBP (light gray); myelinated fibers appear yellow in merged images. Scale bar, 100 μm.
Gpr56^fl/fl;PdgfrαCreER^− and Gpr56^fl/fl;PdgfrαCreER^+ P7 pups were injected with tamoxifen (50 mg kg^−1) for 3 days before the cerebellar harvesting. All cerebella were harvested on P10 and placed in ice-cold Hank's buffer (Fisher Scientific) before being cut into 300 μm thick sagittal sections with a vibratome (Leica Biosystems). Three slices were placed onto inserts (Millicell 0.4 μm, Millipore) in media containing 50% MEM, 25% Horse Serum, 25% Hank's Buffer, 1% GlutaMax, 5 mg/ml Glucose. […] Quantification of myelinated fibers was performed using Image J by subtracting background and applying threshold for both red and green channel, before measuring both myelinated and unmyelinated axon fibers.

GPR56 = target: T1, GPR56 (Mus musculus, UniProt Q8K209); assay: TG2 activation assay: GPR56 NTF released into supernatant of HEK 293T cells (Western blot); format: cell-based; details: 10 min, HEK 293T transfected with mouse Gpr56
T1 construct: expressed in transfected cells; host or cells: HEK 293T
T1 sequence (Q8K209 26-687): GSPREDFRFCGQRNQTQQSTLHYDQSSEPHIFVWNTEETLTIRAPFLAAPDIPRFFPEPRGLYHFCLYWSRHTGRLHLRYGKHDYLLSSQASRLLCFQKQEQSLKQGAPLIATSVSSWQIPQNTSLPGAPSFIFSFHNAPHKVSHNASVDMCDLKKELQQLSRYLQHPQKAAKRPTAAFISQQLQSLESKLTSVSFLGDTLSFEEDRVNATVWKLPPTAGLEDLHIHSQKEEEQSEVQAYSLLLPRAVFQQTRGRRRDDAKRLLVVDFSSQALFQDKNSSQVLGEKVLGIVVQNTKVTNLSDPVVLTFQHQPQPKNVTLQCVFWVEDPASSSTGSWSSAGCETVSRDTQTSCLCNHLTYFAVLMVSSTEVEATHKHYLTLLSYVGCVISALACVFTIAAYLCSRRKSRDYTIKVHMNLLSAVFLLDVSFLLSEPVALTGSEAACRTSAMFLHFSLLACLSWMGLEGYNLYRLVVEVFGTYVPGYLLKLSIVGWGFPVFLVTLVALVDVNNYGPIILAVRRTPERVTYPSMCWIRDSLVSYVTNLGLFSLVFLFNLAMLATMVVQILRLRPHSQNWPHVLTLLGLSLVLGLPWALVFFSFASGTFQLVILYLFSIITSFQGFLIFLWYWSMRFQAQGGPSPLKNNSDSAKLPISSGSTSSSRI
Procedure: HEK 293T cells were transiently transfected with mouse Gpr56 cDNA. Twenty-four hours after transfection, the cells were subject to serum starvation for 36 hr followed by the addition of recombinant TG2 250 nM with/without recombinant laminin-111 12.5 nM, or acetic acid as control for 10 min. The conditioned media were harvested, filtered, and concentrated as previously described. Equal volumes of the concentrated media were used for Western blot (Luo et al., PLOS One 9, e100043, 2014), while the cell pellets were used for GTP-Rho pull-down assay.

GPR56^N = target: T2, GPR56^N (Mus musculus, UniProt Q8K209); assay: In vitro biotinylation/proteomics pull-down from mixed glial cell lysate with mass spectrometry; details: peptide sequences specific for binding to GPR56^N
T2 construct: Using the soluble N-terminal fragment of GPR56 (GPR56^N); made in house
T2 sequence (Q8K209 26-382 limits assumed): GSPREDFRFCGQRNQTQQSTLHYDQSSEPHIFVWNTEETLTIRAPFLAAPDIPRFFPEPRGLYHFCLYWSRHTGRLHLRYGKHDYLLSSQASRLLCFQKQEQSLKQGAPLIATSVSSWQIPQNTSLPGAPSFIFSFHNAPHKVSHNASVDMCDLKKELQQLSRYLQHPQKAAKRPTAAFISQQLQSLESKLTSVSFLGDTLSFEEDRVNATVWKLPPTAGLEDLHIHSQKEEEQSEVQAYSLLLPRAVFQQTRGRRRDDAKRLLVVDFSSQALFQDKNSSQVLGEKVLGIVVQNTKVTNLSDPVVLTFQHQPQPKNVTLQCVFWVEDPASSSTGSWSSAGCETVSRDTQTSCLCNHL
Source text: To identify the ligand of GPR56 in OPCs, an in vitro biotinylation/proteomics approach was employed using single-step capture on streptavidin beads to purify the binding partner(s) of GPR56 (FIGS. 2A-2B). Proteins with more than five identified tryptic peptides in the Mass Spectrometry (MS) output from three independent experiments are listed at Table 1.
(§1) GPR56^N and GPR56^Ndel fusions proteins with either mFc or hFc tag were generated as previously described (Luo et al. Proc Natl Acad Sci USA 108, 12925-12930, 2011). BirA enzyme was used to in vitro biotinylate GPR56^N-mFc-biotag protein as previously described (De Laurenzi and Melino Mol Cell Biol 21, 148-155, 2001). Mixed glial cell lysate was incubated with biotinylated GPR56^N protein in lysis buffer [20 mM Hepes (pH 7.3), 150 mM NaCl, and 5 mM MgCl2] with protein inhibitor mixture (Roche Molecular Biochemicals) and 1% Brij 96 (Fluka). Streptavidin beads (Sigma) were used to affinity purify immunocomplexes. GPR56-associated proteins were eluted in 2×SDS loading buffer, subjected to SDS/PAGE. The whole lane was used for MS at the Taplin Biological Mass Spectrometry at Havard Medical School. MS data were searched against the mouse International Protein Index (IPI mouse 339) database using the protein identification software Mascot (v2.2.04, Matrix Sciences) (Luo et al. Proc Natl Acad Sci USA 108, 12925-12930, 2011).
as §1, with “al.,” for “al.”, “(Stacey et al., J” for “(De Laurenzi and Melino Mol Cell”, “Chem 277, 29283-29293, 2002).” for “21, 148-155, 2001).”, “(20” for “[20”, “[pH 7.3],” for “(pH 7.3),”, “MgCl2)” for “MgCl2]”

Substance: Transglutaminase 2 [TG2]
- Remyelination (percentage of myelinated axons) (cerebellar slices): rescued remyelination failure; also recorded: promotes remyelination
- Released GPR56 NTF in supernatant (GPR56; TG2 250 nM alone vs control): n.s.
- Released GPR56 NTF in supernatant (GPR56; TG2 250 nM with laminin-111 12.5 nM): removed the GPR56 NTF
- Peptide Number (Exp1) (GPR56^N; experiment 1): 19
- Peptide Number (Exp2) (GPR56^N; experiment 2): 20
- Peptide Number (Exp3) (GPR56^N; experiment 3): 17
